# Results as given in publication PMC6242907, “Molecular basis of maintaining an oxidizing environment under anaerobiosis by soluble fumarate reductase” (Nature Communications, 2018).
# Key:
# Test in all cases: purified protein
# Format in all cases: biochemical, Saccharomyces cerevisiae
# purified protein [1] = substrate: Cc1cc2c(cc1C)N(C[C@H](O)[C@H](O)[C@H](O)CO)c1[nH]c(=O)[nH]c(=O)c1N2; conditions: printed as riboflavin, reduced in situ by excess sodium dithionite; fumarate as acceptor, anaerobic, PBS, 1 mM EDTA
# purified protein [2] = substrate: Cc1cc2c(cc1C)N(C[C@H](O)[C@H](O)[C@H](O)COP(=O)(O)O)c1[nH]c(=O)[nH]c(=O)c1N2; conditions: printed as FMN, reduced in situ by excess sodium dithionite; fumarate as acceptor, anaerobic, PBS, 1 mM EDTA
# purified protein [3] = substrate: Cc1cc2c(cc1C)N(C[C@H](O)[C@H](O)[C@H](O)COP(=O)(O)OP(=O)(O)OC[C@H]1O[C@@H](n3cnc4c(N)ncnc43)[C@H](O)[C@@H]1O)c1[nH]c(=O)[nH]c(=O)c1N2; conditions: printed as FAD, reduced in situ by excess sodium dithionite; fumarate as acceptor, anaerobic, PBS, 1 mM EDTA
protein,measurement,setting,value
"Osm1 (Saccharomyces cerevisiae S288C) (protein, residues 32-501, N-terminal His6 tag and thrombin site in pET28a, E. coli BL21(DE3); tag removed by trypsin for crystals) SMKQPVVVIGSGLAGLTTSNRLISKYRIPVVLLDKAASIGGNSIKASSGINGAHTDTQQNLKVMDTPELFLKDTLHSAKGRGVPSLMDKLTKESKSAIRWLQTEFDLKLDLLAQLGGHSVPRTHRSSGKLPPGFEIVQALSKKLKDISSKDSNLVQIMLNSEVVDIELDNQGHVTGVVYMDENGNRKIMKSHHVVFCSGGFGYSKEMLKEYSPNLIHLPTTNGKQTTGDGQKILSKLGAELIDMDQVQVHPTGFIDPNDRENNWKFLAAEALRGLGGILLHPTTGRRFTNELSTRDTVTMEIQSKCPKNDNRALLVMSDKVYENYTNNINFYMSKNLIKKVSINDLIRQYDLQTTASELVTELKSYSDVNTKDTFDRPLIINAFDKDISTESTVYVGEVTPVVHFTMGGVKINEKSQVIKKNSESVLSNGIFAAGEVSGGVHGANRLGGSSLLECVVFGKTAADNIAKLY",Km,purified protein [1],9.3745 (±4.991) µM
same,Km,purified protein [2],5.847 (±2.0065) µM
same,Km,purified protein [3],2.858 µM
